Reference: US20250262210A1 (TRUSTEES OF COLUMBIA UNIVERSITY IN THE CITY OF NEW YORK, published 2025)
Changes are numbered by the printed parent chain.

T1: LZTR1-FLAG (human, UniProt Q8N653 1-840)
T1 construct: Expressed in HEK 293T, HeLa or U87 cells; used as cell lysate; also called LZTR1 wild type-FLAG; LZTR1 WT; not shown: FLAG tag at the C-terminus
T1 sequence (looked up): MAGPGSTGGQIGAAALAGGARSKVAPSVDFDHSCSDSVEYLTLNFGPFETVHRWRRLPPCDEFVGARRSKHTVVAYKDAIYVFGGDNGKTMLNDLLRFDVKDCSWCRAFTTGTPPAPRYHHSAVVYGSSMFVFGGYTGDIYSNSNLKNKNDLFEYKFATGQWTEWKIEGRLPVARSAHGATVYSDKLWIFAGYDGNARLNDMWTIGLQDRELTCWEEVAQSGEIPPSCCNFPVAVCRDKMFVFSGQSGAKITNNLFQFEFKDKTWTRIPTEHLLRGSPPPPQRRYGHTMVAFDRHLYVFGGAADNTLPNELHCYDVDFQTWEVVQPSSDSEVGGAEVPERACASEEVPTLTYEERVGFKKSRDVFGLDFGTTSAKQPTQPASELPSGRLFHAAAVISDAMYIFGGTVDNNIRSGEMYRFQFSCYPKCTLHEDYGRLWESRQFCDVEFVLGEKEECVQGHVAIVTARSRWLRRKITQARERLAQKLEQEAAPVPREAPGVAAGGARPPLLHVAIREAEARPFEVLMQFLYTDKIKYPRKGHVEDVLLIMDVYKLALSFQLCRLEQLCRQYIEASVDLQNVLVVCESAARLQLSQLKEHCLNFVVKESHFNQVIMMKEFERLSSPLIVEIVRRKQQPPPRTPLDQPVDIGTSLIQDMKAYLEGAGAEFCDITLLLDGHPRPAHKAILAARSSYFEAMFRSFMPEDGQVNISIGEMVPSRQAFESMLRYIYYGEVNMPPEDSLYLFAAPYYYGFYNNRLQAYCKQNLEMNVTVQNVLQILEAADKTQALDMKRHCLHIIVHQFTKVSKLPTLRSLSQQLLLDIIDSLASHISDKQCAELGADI

T2: LZTR1 R810W-FLAG (human, UniProt Q8N653 1-840)
T2 construct: Stably expressed in U87 cells by lentivirus; also called LZTR1-FLAG-R810W; LZTR1 RW; not shown: FLAG tag
T2 sequence (looked up): T1 sequence (looked up) with R810W

B1: RANBP9 (other, human, UniProt Q96S59 1-729, looked up)
chain: MSGQPPPPPPQQQQQQQQLSPPPPAALAPVSGVVLPAPPAVSAGSSPAGSPGGGAGGEGLGAAAAALLLHPPPPPPPATAAPPPPPPPPPPPASAAAPASGPPAPPGLAAGPGPAGGAPTPALVAGSSAAAPFPHGDSALNEQEKELQRRLKRLYPAVDEQETPLPRSWSPKDKFSYIGLSQNNLRVHYKGHGKTPKDAASVRATHPIPAACGIYYFEVKIVSKGRDGYMGIGLSAQGVNMNRLPGWDKHSYGYHGDDGHSFCSSGTGQPYGPTFTTGDVIGCCVNLINNTCFYTKNGHSLGIAFTDLPPNLYPTVGLQTPGEVVDANFGQHPFVFDIEDYMREWRTKIQAQIDRFPIGDREGEWQTMIQKMVSSYLVHHGYCATAEAFARSTDQTVLEELASIKNRQRIQKLVLAGRMGEAIETTQQLYPSLLERNPNLLFTLKVRQFIEMVNGTDSEVRCLGGRSPKSQDSYPVSPRPFSSPSMSPSHGMNIHNLASGKGSTAHFSGFESCSNGVISNKAHQSYCHSNKHQSSNLNVPELNSINMSRSQQVNNFTSNDVDMETDHYSNGVGETSSNGFLNGSSKHDHEMEDCDTEMEVDSSQLRRQLCGGSQAAIERMIHFGRELQAMSEQLRRDCGKNTANKKMLKDAFSLLAYSDPWNSPVGNQLDPIQREPVCSALNSAILETHNLPKQPPLALAMGQATQCLGLMARSGIGSCAFATVEDYLH
B2: RAP1GDS1 (other, human, UniProt P52306 1-607, looked up)
chain: MDNLSDTLKKLKITAVDKTEDSLEGCLDCLLQALAQNNTETSEKIQASGILQLFASLLTPQSSCKAKVANIIAEVAKNEFMRIPCVDAGLISPLVQLLNSKDQEVLLQTGRALGNICYDSHEGRSAVDQAGGAQIVIDHLRSLCSITDPANEKLLTVFCGMLMNYSNENDSLQAQLINMGVIPTLVKLLGIHCQNAALTEMCLVAFGNLAELESSKEQFASTNIAEELVKLFKKQIEHDKREMIFEVLAPLAENDAIKLQLVEAGLVECLLEIVQQKVDSDKEDDITELKTGSDLMVLLLLGDESMQKLFEGGKGSVFQRVLSWIPSNNHQLQLAGALAIANFARNDANCIHMVDNGIVEKLMDLLDRHVEDGNVTVQHAALSALRNLAIPVINKAKMLSAGVTEAVLKFLKSEMPPVQFKLLGTLRMLIDAQAEAAEQLGKNVKLVERLVEWCEAKDHAGVMGESNRLLSALIRHSKSKDVIKTIVQSGGIKHLVTMATSEHVIMQNEALVALALIAALELGTAEKDLESAKLVQILHRLLADERSAPEIKYNSMVLICALMGSECLHKEVQDLAFLDVVSKLRSHENKSVAQQASLTEQRLTVES
B3: SCYL1 (other, human, UniProt Q96KG9 1-808, looked up)
chain: MWFFARDPVRDFPFELIPEPPEGGLPGPWALHRGRKKATGSPVSIFVYDVKPGAEEQTQVAKAAFKRFKTLRHPNILAYIDGLETEKCLHVVTEAVTPLGIYLKARVEAGGLKELEISWGLHQIVKALSFLVNDCSLIHNNVCMAAVFVDRAGEWKLGGLDYMYSAQGNGGGPPRKGIPELEQYDPPELADSSGRVVREKWSADMWRLGCLIWEVFNGPLPRAAALRNPGKIPKTLVPHYCELVGANPKVRPNPARFLQNCRAPGGFMSNRFVETNLFLEEIQIKEPAEKQKFFQELSKSLDAFPEDFCRHKVLPQLLTAFEFGNAGAVVLTPLFKVGKFLSAEEYQQKIIPVVVKMFSSTDRAMRIRLLQQMEQFIQYLDEPTVNTQIFPHVVHGFLDTNPAIREQTVKSMLLLAPKLNEANLNVELMKHFARLQAKDEQGPIRCNTTVCLGKIGSYLSASTRHRVLTSAFSRATRDPFAPSRVAGVLGFAATHNLYSMNDCAQKILPVLCGLTVDPEKSVRDQAFKAIRSFLSKLESVSEDPTQLEEVEKDVHAASSPGMGGAAASWAGWAVTGVSSLTSKLIRSHPTTAPTETNIPQRPTPEGVPAPAPTPVPATPTTSGHWETQEEDKDTAEDSSTADRWDDEDWGSLEQEAESVLAQQDDWSTGGQVSRASQVSNSDHKSSKSPESDWSSWEAEGSWEQGWQEPSSQEPPPDGTRLASEYNWGGPESSDKGDPFATLSARPSTQPRPDSWGEDNWEGLETDSRQVKAELARKKREERRREMEAKRAERKVAKGPMKLGARKLD
B4: RASA3 (other, human, UniProt Q14644 2-834, looked up)
chain: AVEDEGLRVFQSVKIKIGEAKNLPSYPGPSKMRDCYCTVNLDQEEVFRTKIVEKSLCPFYGEDFYCEIPRSFRHLSFYIFDRDVFRRDSIIGKVAIQKEDLQKYHNRDTWFQLQHVDADSEVQGKVHLELRLSEVITDTGVVCHKLATRIVECQGLPIVNGQCDPYATVTLAGPFRSEAKKTKVKRKTNNPQFDEVFYFEVTRPCSYSKKSHFDFEEEDVDKLEIRVDLWNASNLKFGDEFLGELRIPLKVLRQSSSYEAWYFLQPRDNGSKSLKPDDLGSLRLNVVYTEDHVFSSDYYSPLRDLLLKSADVEPVSASAAHILGEVCREKQEAAVPLVRLFLHYGRVVPFISAIASAEVKRTQDPNTIFRGNSLASKCIDETMKLAGMHYLHVTLKPAIEEICQSHKPCEIDPVKLKDGENLENNMENLRQYVDRVFHAITESGVSCPTVMCDIFFSLREAAAKRFQDDPDVRYTAVSSFIFLRFFAPAILSPNLFQLTPHHTDPQTSRTLTLISKTVQTLGSLSKSKSASFKESYMATFYEFFNEQKYADAVKNFLDLISSSGRRDPKSVEQPIVLKEGFMIKRAQGRKRFGMKNFKKRWFRLTNHEFTYHKSKGDQPLYSIPIENILAVEKLEEESFKMKNMFQVIQPERALYIQANNCVEAKDWIDILTKVSQCNQKRLTVYHPSAYLSGHWLCCRAPSDSAPGCSPCTGGLPANIQLDIDGDRETERIYSLFNLYMSKLEKMQEACGSKSVYDGPEQEEYSTFVIDDPQETYKTLKQVIAGVGALEQEHAQYKRDKFKKTKYGSQEHPIGDKSFQNYIRQQSETSTHSI
B5: RETSAT (other, human, UniProt Q6NUM9 19-610, looked up)
chain: KVYLGLFSGSSPNPFSEDVKRPPAPLVTDKEARKKVLKQAFSANQVPEKLDVVVIGSGFGGLAAAAILAKAGKRVLVLEQHTKAGGCCHTFGKNGLEFDTGIHYIGRMEEGSIGRFILDQITEGQLDWAPLSSPFDIMVLEGPNGRKEYPMYSGEKAYIQGLKEKFPQEEAIIDKYIKLVKVVSSGAPHAILLKFLPLPVVQLLDRCGLLTRFSPFLQASTQSLAEVLQQLGASSELQAVLSYIFPTYGVTPNHSAFSMHALLVNHYMKGGFYPRGGSSEIAFHTIPVIQRAGGAVLTKATVQSVLLDSAGKACGVSVKKGHELVNIYCPIVVSNAGLFNTYEHLLPGNARCLPGVKQQLGTVRPGLGMTSVFICLRGTKEDLHLPSTNYYVYYDTDMDQAMERYVSMPREEAAEHIPLLFFAFPSAKDPTWEDRFPGRSTMIMLIPTAYEWFEEWQAELKGKRGSDYETFKNSFVEASMSVVLKLFPQLEGKVESVTAGSPLTNQFYLAAPRGACYGADHDLGRLHPCVMASLRAQSPIPNLYLTGQDIFTCGLVGALQGALLCSSAILKRNLYSDLKNLDSRIRAQKKKN

These binders were tested against T1, LZTR1-FLAG (assay: IP/MS, LZTR1 wild type-FLAG, U87).
Method in brief: (§1)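 Extracted peptides in 3% acetonitrile/0.1% formic acid ran on a 50 cm C18 column into an Orbitrap Fusion, with MaxQuant identification and spectral counting.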
B1: binds. B2: binds. B3: binds. B4: binds. B5: binds.

These binders were tested against T2, LZTR1 R810W-FLAG (assay: IP/MS, LZTR1 R810W-FLAG, U87).
Method in brief: as §1
B1: binds. B2: binds. B3: binds. B4: binds. B5: binds.
